# US20240182547A1 (MOGAM INSTITUTE FOR BIOMEDICAL RESEARCH, published 2024)
# B1: 2G4 (antibody, V domains shown)
# VH: EVQLVESGGGLVKPGGSLRLSCAASGFTFSSYTMHWVRQAPGKGLEWVSSITGGSSYVDYSASVKGRFTISRDNAQSSLYLQMNSLRAEDTAVYYCARDDYGSGSYSNWFDPWGQGTLVTVSS
# VL: QSVLTQPPSVSGAPGQRVTISCTGSSSNIGAGYDVHWYQQVPGTAPKLLIFGSTNRPSGVPDRFSGSKSGTSASLAITGLQADDEADYYCQSYDRSLSHVFGTGTKVTVLG
# notes: IgG made in Expi293; also called #1
# B2: 12C11 (antibody, V domains shown)
# VH: EVQLVESGGGLVKPGGSLRLSCAASGFTFTSYRMHWVRQAPGKRLEWVSSITGGGNYIEYADSVKGRFTISRDNAKNSLDLQMNSLRAEDTAIYYCARDMYGLGSYYSPNYFDPWGQGTLVTVSS
# VL: QSVLTQPPSVSGAPGQRVTISCTGSSSNIGAGYDVHWYQQVPGTAPKLLIFGSTNRPSGVPDRFSGSKSGASASLAITGLQTEDEADYYCQSYDRSLSHVFGTGTKVTVLG
# notes: IgG made in Expi293; also called #19; 19
# B3: #11m (antibody, V domains shown)
# VH: EVQLVESGGGLVKPGGSLRLSCAASGFTFTSYRMHWVRQAPGKGLEWVSSITGGGNYIEYADSVKGRFTISRDNAQSSLYLQMNSLRAEDTAVYYCARDDYGSGSYSNWFDPWGQGTLVTVSS
# VL: QSVLTQPPSVSGAPGQRVTISCTGSSSNIGAGYDVHWYQQLPGRAPKLLIFANTNRPSGVPDRFSGSKSGASASLAITGLQADDEADYYCQSYDRSLSHVFGTGTKVTVLG
# notes: Germline-edited (m) form of 12E9, light chain edited; IgG; also called 12E9 (modified)
# B4: #16m (antibody, V domains shown)
# VH: EVQLVESGGGLVKPGGSLRLSCAGSGFTFSSYTMHWVRQAPGKGLEWVSSITGGSSYVDYSASVKGRFTISRDNAQSSLYLQMNSLRAEDTAVYYCARDDYGSGSYSNWFDPWGRGTTVTVSS
# VL: QSVLTQPLSASGTPGQRVTISCTGSSSNIGAGYDVHWYQQLPGRAPKLLIFANTNRPSGVPDRFSGSKSGTSASLAITGLQAEDEADYYCQSYDRSLSHVFGTGTKVTVLG
# notes: Germline-edited (m) form of 3H8, light chain edited; IgG; also called 3H8 (modified)
# B5: 10E7 (antibody, V domains shown)
# VH: EVQLVESGGGLVKPGGSLRLSCAASGFTFTSYRMHWVRQAPGKGLEWVSSITGGGNYIEYADSVKGRFTISRDNAKNSLDLQMNSLRAEDTAIYYCARDMYGLGSYYSPNYFDSWGQGTLVTVSS
# VL: QSVLTQPPSVSGAPGQRVTISCTGSSSNIGAGYDVHWYQQLPGRAPKLLIFANTNRPSGVPDRFSGSKSGASASLAITGLQADDEADYYCQSYDRSLSHVFGTGTKVTVLG
# notes: IgG made in Expi293; also called #13; 13
# B6: 3E10 (antibody, V domains shown)
# VH: EVQLVESGGGLVKPGGSLRLSCAASGFTFTSYRMHWVRQAPGKGLEWVSSITGGGNYIEYADSVKGRFTISRDNAKNSLDLQMNSLRAEDTAIYYCARDMYGLGSYYSPNYFDPWGQGTLVTVSS
# VL: QPVLTQPPSVSGAPGQRVTISCTGSSSNIGAGYDVHWYQQVPGTAPKLLIFGSTNRPSGVPDRFSGSKSGASASLAITGLQTEDEADYYCQSYDRSLSHVFGTGTKVTVLG
# notes: IgG made in Expi293; also called #20; 20
# B7: 2H9 (antibody, V domains shown)
# VH: QVTLKESGGGLVKPGGSLRLSCAASGFTFTSYRMHWVRQAPGKGLEWVSSITGGGNYIEYADSVKGRFTISRDNAKNSLDLQMNSLRAEDTAIYYCARDMYGLGSYYSPNYFDPWGQGTLVTVSS
# VL: SYELTQPLSVSGAPGQRVTISCTGSSSNIGAGYDVHWYQQVPGTAPKLLIFGSTNRPSGVPDRFSGSKSGASASLAITGLQADDEADYYCQSYDRSLSHVFGTGTKVTVLG
# notes: IgG made in Expi293; also called #18; 18
# B8: #20m (antibody, V domains shown)
# VH: EVQLVESGGGLVKPGGSLRLSCAASGFTFTSYRMHWVRQAPGKGLEWVSSITGGGNYIEYADSVKGRFTISRDNAKNSLDLQMNSLRAEDTAIYYCARDMYGLGSYYSPNYFDPWGQGTLVTVSS
# VL: QSVLTQPPSVSGAPGQRVTISCTGSSSNIGAGYDVHWYQQVPGTAPKLLIFGSTNRPSGVPDRFSGSKSGASASLAITGLQTEDEADYYCQSYDRSLSHVFGTGTKVTVLG
# notes: Germline-edited (m) form of 3E10, light chain edited; IgG; also called 3E10 (modified)
# B9: #12m (antibody, V domains shown)
# VH: EVQLVESGGGLVKPGGSLRLSCAGSGFAFSSYTMHWVRQAPGKGLEWVSSITGGSSYLDYAHSVKGRFTISRDNGQNSLFLQMNSLRTEDTAVYYCARDDYGSGSYSNYFDPWGQGTLVTVSS
# VL: QSVLTQPPSVSGAPGQRVTISCTGSSSNIGAGYDVHWYQQVPGTAPKLLIFGSTNRPSGVPDRFSGSKSGASASLAITGLQTEDEADYYCQSYDRSLSHVFGTGTKVTVLG
# notes: Germline-edited (m) form of 4F11, light chain edited; IgG; also called 4F11 (modified)
# B10: 2H1 (antibody, V domains shown)
# VH: QVTLKESGGGVVQSGRSLRLSCAASGFTFSSYTMHWVRQAPGKGLEWVSSITGGSSYVDYSASVKGRFTISRDNAQSSLYLQMNSLRAEDTAVYYCARDDYGSGSYSNWFDPWGQGTLVTVSS
# VL: QSVLTQPPSVSGAPGQRVTISCTGSSSNIGAGYDVHWYQQLPGRAPKLLIYANTNRPSGVADRFSGSKSGASASLAITGLQADDEADYYCQSYDRSLSHVFGTGTKVTVLG
# notes: IgG made in Expi293; also called #9
# B11: #15m (antibody, V domains shown)
# VH: EVQLVESGGGVVQPGRSLRLACAASGFTFNSYAMHWVRQAPGKGLEWVSSITGGSSYVDYSASVKGRFTISRDNAQSSLYLQMNSLRAEDTAVYYCARDMYGLGSYYSPNYFDPWGQGTLVTVSS
# VL: QSVLTQPPSVSGAPGQRVTISCTGSSSNIGAGYDVHWYQQLPGRAPKLLIFANTNRPSGVPDRFSGSKSGTSASLAITGLQAEDEADYYCQSYDSSLSYVFGTGTKVTVLG
# notes: Germline-edited (m) form of 12B11, light chain edited; IgG; also called 12B11 (modified)
# B12: 2E9 (antibody, V domains shown)
# VH: QVTLKESGGGLVKPGGSLRLSCAGSGFTFSSYTMHWVRQAPGKGLEWVSSITGGSSYVDYSASVKGRFTISRDNAKNSLFLQMNSLRAEDTAVYYCARDDYGSGSYSNWFDPWGQGTLVTVSS
# VL: QSVLTQPPSVSGAPGQRVTISCTGSSSNIGAGYDVHWYQQLPGRAPKLLIFANTNRPSGVPDRFSGSKSGASASLAITGLQADDEADYYCQSYDRSLSHVFGTGTKVTVLG
# notes: IgG made in Expi293; also called #14; 14
# B13: 3H8 (antibody, V domains shown)
# VH: EVQLVESGGGLVKPGGSLRLSCAGSGFTFSSYTMHWVRQAPGKGLEWVSSITGGSSYVDYSASVKGRFTISRDNAQSSLYLQMNSLRAEDTAVYYCARDDYGSGSYSNWFDPWGRGTTVTVSS
# VL: QPVLTQPLSASGTPGQRVTISCTGSSSNIGAGYDVHWYQQLPGRAPKLLIFANTNRPSGVPDRFSGSKSGTSASLAITGLQAEDEADYYCQSYDRSLSHVFGTGTKVTVLG
# notes: IgG made in Expi293; also called #16; 16
# B14: 2H3 (antibody, V domains shown)
# VH: EVQLVESGGGVVQSGRSLRLSCAGSGFTFSSYTMHWVRQAPGKGLEWVSSITGGSSYVDYSASVKGRFTISRDNAQSSLYLQMNSLRAEDTAVYYCARDDYGSGSYSNWFDPWGQGTLVTVSS
# VL: QSVLTQPPSVSGAPGQRVTISCTGSSSNIGAGYDVHWYQQVPGTAPKLLIFGSTNRPSGVPDRFSGSKSGASASLAITGLQTEDEADYYCQSYDRSLSHVFGTGTKVTVLG
# notes: IgG made in Expi293; also called 2F5; #65
# B15: 12B11 (antibody, V domains shown)
# VH: EVQLVESGGGVVQPGRSLRLACAASGFTFNSYAMHWVRQAPGKGLEWVSSITGGSSYVDYSASVKGRFTISRDNAQSSLYLQMNSLRAEDTAVYYCARDMYGLGSYYSPNYFDPWGQGTLVTVSS
# VL: SYELTQPPSVSGAPGQRVTISCTGSSSNIGAGYDVHWYQQLPGRAPKLLIFANTNRPSGVPDRFSGSKSGTSASLAITGLQAEDEADYYCQSYDSSLSYVFGTGTKVTVLG
# notes: IgG made in Expi293; also called #15; 15
# B16: 4F11 (antibody, V domains shown)
# VH: EVQLVESGGGLVKPGGSLRLSCAGSGFAFSSYTMHWVRQAPGKGLEWVSSITGGSSYLDYAHSVKGRFTISRDNGQNSLFLQMNSLRTEDTAVYYCARDDYGSGSYSNYFDPWGQGTLVTVSS
# VL: QPVLTQPPSVSGAPGQRVTISCTGSSSNIGAGYDVHWYQQVPGTAPKLLIFGSTNRPSGVPDRFSGSKSGASASLAITGLQTEDEADYYCQSYDRSLSHVFGTGTKVTVLG
# notes: IgG made in Expi293; also called #12; 12
# B17: 4E1 (antibody, V domains shown)
# VH: EVQLVESGGGLVQPGGSLRLACAASGFTFSSYTMHWVRQAPGKGLEWVSSITGGSSYVDYSASVKGRFTISRDNAQSSLYLQMNSLRAEDTAVYYCARDDYGSGSYSNWFDPWGQGTLVTVSS
# VL: SYELTQPPSVSGAPGQRVTISCTGSSSNIGAGYDVHWYQQLPGRAPKLLIFANTNRPSGVPDRFSGSKSGASASLAITGLQAEDEADYYCQSYDRSLSHVFGTGTKVTVLG
# notes: IgG made in Expi293; also called #17; 17
# B18: 4G4 (antibody, V domains shown)
# VH: EVQLVESGGGLVKPGGSLRLSCAGSGFTFSSYTMHWVRQAPGKGLEWVSSITGGSSYVDYSASVKGRFTISRDNAQSSLYLQMNSLRAEDTAVYYCARDDYGSGSYSNWFDPWGQGTLVTVSS
# VL: QSVLTQPPSVSGAPGQRVTISCTGNSSNLGAGYDVHWYQQLPGTAPKLLIYANTNRPSGVPDRFSGSKSGASASLAITGLQTEDEADYYCQSYDRSLSHVFGTGTKVTVLG
# notes: IgG made in Expi293; also called #10; 10
# B19: #17m (antibody, V domains shown)
# VH: EVQLVESGGGLVQPGGSLRLACAASGFTFSSYTMHWVRQAPGKGLEWVSSITGGSSYVDYSASVKGRFTISRDNAQSSLYLQMNSLRAEDTAVYYCARDDYGSGSYSNWFDPWGQGTLVTVSS
# VL: QSVLTQPPSVSGAPGQRVTISCTGSSSNIGAGYDVHWYQQLPGRAPKLLIFANTNRPSGVPDRFSGSKSGASASLAITGLQAEDEADYYCQSYDRSLSHVFGTGTKVTVLG
# notes: Germline-edited (m) form of 4E1, light chain edited; IgG; also called 4E1 (modified)
# B20: 12E9 (antibody, V domains shown)
# VH: EVQLVESGGGLVKPGGSLRLSCAASGFTFTSYRMHWVRQAPGKGLEWVSSITGGGNYIEYADSVKGRFTISRDNAQSSLYLQMNSLRAEDTAVYYCARDDYGSGSYSNWFDPWGQGTLVTVSS
# VL: QTVVTQEPSVSGAPGQRVTISCTGSSSNIGAGYDVHWYQQLPGRAPKLLIFANTNRPSGVPDRFSGSKSGASASLAITGLQADDEADYYCQSYDRSLSHVFGTGTKVTVLG
# notes: IgG made in Expi293; also called #11; 11
# B21: #18m (antibody, V domains shown)
# VH: EVQLVESGGGLVKPGGSLRLSCAASGFTFTSYRMHWVRQAPGKGLEWVSSITGGGNYIEYADSVKGRFTISRDNAKNSLDLQMNSLRAEDTAIYYCARDMYGLGSYYSPNYFDPWGQGTLVTVSS
# VL: QSVLTQPLSVSGAPGQRVTISCTGSSSNIGAGYDVHWYQQVPGTAPKLLIFGSTNRPSGVPDRFSGSKSGASASLAITGLQADDEADYYCQSYDRSLSHVFGTGTKVTVL
# notes: Germline-edited (m) form of 2H9, heavy and light chain edited; IgG; also called 2H9 (modified)
# Molecular target: DS-Cav1 (RSV F-protein, pre-form, in-house) (respiratory syncytial virus (RSV), UniProt P03420 26-513)
# Sequence (P03420 26-524): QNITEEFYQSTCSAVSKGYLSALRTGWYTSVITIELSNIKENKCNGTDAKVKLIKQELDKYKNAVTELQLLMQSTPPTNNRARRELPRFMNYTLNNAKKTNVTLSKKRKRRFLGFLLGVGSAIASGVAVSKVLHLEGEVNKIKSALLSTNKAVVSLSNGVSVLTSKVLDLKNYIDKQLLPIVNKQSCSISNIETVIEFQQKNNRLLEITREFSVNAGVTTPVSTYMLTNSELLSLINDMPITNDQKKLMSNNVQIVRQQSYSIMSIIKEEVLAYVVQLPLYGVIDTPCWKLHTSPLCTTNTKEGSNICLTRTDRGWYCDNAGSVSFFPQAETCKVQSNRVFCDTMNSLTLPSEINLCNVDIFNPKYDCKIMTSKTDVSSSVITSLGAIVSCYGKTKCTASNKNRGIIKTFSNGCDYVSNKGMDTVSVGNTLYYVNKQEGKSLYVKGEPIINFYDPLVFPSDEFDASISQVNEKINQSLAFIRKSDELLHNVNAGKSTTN
# Assay: ELISA, coated DS-Cav1, IgG titrated
row,Binder,Kd [pM]
1,B1,~1010
2,B2,~720
3,B3,~2010
4,B4,~970
5,B5,~1730
6,B6,~520
7,B7,~380
8,B8,~880
9,B9,~1820
10,B10,~1950
11,B11,~1200
12,B12,~480
13,B13,~510
14,B14,~980
15,B15,~720
16,B16,~430
17,B17,~560
18,B18,~380
19,B19,~1130
20,B20,~570
21,B21,~1840
